Data as given in publication PMC4931634.

Tests used:
[1] = molecular target: HIV-1 subtype C TV1.C gp120 (reference standard lot) (HIV-1 group M subtype C, strain TV1.C); assay: non-reduced SDS-PAGE; purified gp120 reference material; the dimer band disappeared completely upon reduced SDS-PAGE
[2] = molecular target: HIV-1 subtype C 1086.C gp120 (reference standard lot) (HIV-1 group M subtype C, strain 1086.C); assay: as above

| Substance | stoichiometry N [1] | stoichiometry N [2] |
| --- | --- | --- |
| HIV-1 subtype C TV1.C gp120 (reference standard lot) (natural protein) | 2 |  |
| HIV-1 subtype C 1086.C gp120 (reference standard lot) (natural protein) |  | 2 |
